# According to patent US20180148477A1 (published 2018):
# Bridge positions count the residues as written; N and C are the ends. Square brackets hold non-standard residues; d marks the D form. Ends that are not written are not given here. 2Nal = N[C@@H](Cc1ccc2ccccc2c1)C(=O)O; d2Nal = N[C@H](Cc1ccc2ccccc2c1)C(=O)O; NMeR = CN[C@@H](CCCNC(=N)N)C(=O)O; Pen = CC(C)(S)[C@H](N)C(=O)O; dNMeK = CN[C@H](CCCCN)C(=O)O; Dab = NCC[C@H](N)C(=O)O; Dap = NC[C@H](N)C(=O)O
# Target: human α4β7 integrin on cells (human) (UniProt P13612)
# Test: RPMI8866 adhesion to MAdCAM-1
row,IC50 [nM],Binder
1,> 1000,"Ac-[Pen][NMeR]SDTL[Pen]WE[Dab] (disulfide 1-7; also: C-terminus written Dab-Ac, acetyl place unclear) [SEQ ID NO: 62]"
2,> 10,Ac-[Pen][NMeR]SDTL[Pen][2Nal][dE][dNMeK]-NH2 (disulfide 1-7; also: dimer via DIG) [SEQ ID NO: 39]
3,> 1000,Ac-[Pen][NMeR]SDTL[Pen]WE[Dab]-NH2 (disulfide 1-7; SMILES CC(=O)N[C@@H]1C(=O)N(C)[C@@H](CCCNC(=N)N)C(=O)N[C@@H](CO)C(=O)N[C@@H](CC(=O)O)C(=O)N[C@@H]([C@@H](C)O)C(=O)N[C@@H](CC(C)C)C(=O)N[C@H](C(=O)N[C@@H](Cc2c[nH]c3ccccc23)C(=O)N[C@@H](CCC(=O)O)C(=O)N[C@@H](CCN)C(N)=O)C(C)(C)SSC1(C)C) [SEQ ID NO: 61]
4,> 1000,"Ac-[Pen][NMeR]SDTL[Pen]W[dE][Dap] (disulfide 1-7; also: C-terminus written Dap-Ac, acetyl place unclear) [SEQ ID NO: 63]"
5,> 1000,"Ac-[Pen][NMeR]SDTL[Pen]W[dE][Dab] (disulfide 1-7; also: C-terminus written Dab-Ac, acetyl place unclear) [SEQ ID NO: 64]"

# Second part, the binder before the results:
row,Binder,IC50 [nM]
1,Ac-[Pen][NMeR]SDTL[Pen]W[dE][Dap]-NH2 (disulfide 1-7; SMILES CC(=O)N[C@@H]1C(=O)N(C)[C@@H](CCCNC(=N)N)C(=O)N[C@@H](CO)C(=O)N[C@@H](CC(=O)O)C(=O)N[C@@H]([C@@H](C)O)C(=O)N[C@@H](CC(C)C)C(=O)N[C@H](C(=O)N[C@@H](Cc2c[nH]c3ccccc23)C(=O)N[C@H](CCC(=O)O)C(=O)N[C@@H](CN)C(N)=O)C(C)(C)SSC1(C)C) [SEQ ID NO: 55],> 100
2,Ac-[Pen][NMeR]SDTL[Pen]W[dE][Dab]-NH2 (disulfide 1-7; SMILES CC(=O)N[C@@H]1C(=O)N(C)[C@@H](CCCNC(=N)N)C(=O)N[C@@H](CO)C(=O)N[C@@H](CC(=O)O)C(=O)N[C@@H]([C@@H](C)O)C(=O)N[C@@H](CC(C)C)C(=O)N[C@H](C(=O)N[C@@H](Cc2c[nH]c3ccccc23)C(=O)N[C@H](CCC(=O)O)C(=O)N[C@@H](CCN)C(N)=O)C(C)(C)SSC1(C)C) [SEQ ID NO: 56],> 500
3,Ac-[Pen][NMeR]SDTL[Pen]WE[Dap]-NH2 (disulfide 1-7; SMILES CC(=O)N[C@@H]1C(=O)N(C)[C@@H](CCCNC(=N)N)C(=O)N[C@@H](CO)C(=O)N[C@@H](CC(=O)O)C(=O)N[C@@H]([C@@H](C)O)C(=O)N[C@@H](CC(C)C)C(=O)N[C@H](C(=O)N[C@@H](Cc2c[nH]c3ccccc23)C(=O)N[C@@H](CCC(=O)O)C(=O)N[C@@H](CN)C(N)=O)C(C)(C)SSC1(C)C) [SEQ ID NO: 59],> 10000
4,Ac-[Pen][NMeR]SDTL[Pen][d2Nal]E[dK]-NH2 (disulfide 1-7; also: dimer via DIG) [SEQ ID NO: 35],> 100
5,"Ac-[Pen][NMeR]SDTL[Pen]WE[Dap] (disulfide 1-7; also: C-terminus written Dap-Ac, acetyl place unclear) [SEQ ID NO: 60]",> 1000
